One series addresses T1, MMP2 (Homo sapiens, UniProt P08253).
T1 sequence (P08253 110-660): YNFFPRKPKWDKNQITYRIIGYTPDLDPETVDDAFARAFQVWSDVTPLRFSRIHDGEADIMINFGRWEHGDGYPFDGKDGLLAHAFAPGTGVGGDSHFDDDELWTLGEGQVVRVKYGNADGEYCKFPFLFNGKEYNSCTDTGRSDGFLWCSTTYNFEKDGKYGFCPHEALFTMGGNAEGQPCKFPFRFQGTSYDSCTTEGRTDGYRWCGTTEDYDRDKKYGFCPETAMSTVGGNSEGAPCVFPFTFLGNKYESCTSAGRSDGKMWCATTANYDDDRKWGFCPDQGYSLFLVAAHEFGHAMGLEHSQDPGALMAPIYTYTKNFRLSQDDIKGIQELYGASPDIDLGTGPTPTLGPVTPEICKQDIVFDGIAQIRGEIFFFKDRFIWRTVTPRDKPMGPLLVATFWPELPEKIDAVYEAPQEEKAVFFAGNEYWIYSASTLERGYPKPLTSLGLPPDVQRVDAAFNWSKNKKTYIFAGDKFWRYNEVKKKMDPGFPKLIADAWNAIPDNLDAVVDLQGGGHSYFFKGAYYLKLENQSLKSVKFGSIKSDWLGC
Nature of the series: Internally quenched peptide probe cleavage assay, MMP2. In kind it is biochemical. To be noted: internally quenched peptide probe 20 μM (20 pM in source), 20 nM protease, 37° C. As to the method: (§1) The CMs listed in Table 9 below were presented in an internally quenched peptide probe format, rather than included in an activatable antibody format. […] Cleavability kinetics (i.e., pM/s and kcat/KM (M^-1s^-1)) were determined in 96- or 384-well plate format at 37° C. in the following buffers: 50 mM TRIS-HCl (pH 7.4), 150 mM NaCl, 0.05% Tween 20 for MT-SP1, 50 mM Tris-HCl (pH 7.5), 10 mM CaCl2, 150 mM NaCl, 0.05% (w/v) Brij-35 for MMP2 and MMP9, and 50 mM HEPES (pH 6.8), 10 mM CaCl2, 0.5 mM MgCl2, 0.05% (w/v) Brij-35 for MMP14. Cleavability kinetics were determined on an Infinite 200 PRO (Tecan) multimode plate reader using a fluorescence excitation wavelength of 320 nm and an emission wavelength of 405 nm. […] The CMs listed in Table 12 below were presented in an internally quenched peptide probe format, rather than included in an activatable antibody format. […] Cleavability kinetics (i.e., pM/s) were determined in 96- or 384-well plate format at 37° C. in the following buffers: 50 mM TRIS-HCl (pH 7.4), 150 mM NaCl, 0.05% Tween 20 for MT-SP1, 50 mM Tris-HCl (pH 7.5), 10 mM CaCl2, 150 mM NaCl, 0.05% (w/v) Brij-35 for MMP2 and MMP9, and 50 mM HEPES (pH 6.8), 10 mM CaCl2, 0.5 mM MgCl2, 0.05% (w/v) Brij-35 for MMP14. Cleavability kinetics were determined on an Infinite 200 PRO (Tecan) multimode plate reader using a fluorescence excitation wavelength of 320 nm and an emission wavelength of 405 nm.

For the next series, the target named is MMP9 (Homo sapiens, UniProt P14780). In words: Internally quenched peptide probe cleavage assay, MMP9. The series is classed as biochemical. To be noted: internally quenched peptide probe 20 μM (20 pM in source), 20 nM protease, 37° C. On the procedure:
as §1

Another series concerns the target MMP14 (Homo sapiens, UniProt P50281). In words: Internally quenched peptide probe cleavage assay, MMP14. The series is classed as biochemical. The conditions noted are these: internally quenched peptide probe 20 μM (20 pM in source), 20 nM protease, 37° C. As to the method: as §1
In the next series the target is T2, MT-SP1 (Homo sapiens, UniProt Q9Y5Y6).
T2 sequence (Q9Y5Y6 1-855): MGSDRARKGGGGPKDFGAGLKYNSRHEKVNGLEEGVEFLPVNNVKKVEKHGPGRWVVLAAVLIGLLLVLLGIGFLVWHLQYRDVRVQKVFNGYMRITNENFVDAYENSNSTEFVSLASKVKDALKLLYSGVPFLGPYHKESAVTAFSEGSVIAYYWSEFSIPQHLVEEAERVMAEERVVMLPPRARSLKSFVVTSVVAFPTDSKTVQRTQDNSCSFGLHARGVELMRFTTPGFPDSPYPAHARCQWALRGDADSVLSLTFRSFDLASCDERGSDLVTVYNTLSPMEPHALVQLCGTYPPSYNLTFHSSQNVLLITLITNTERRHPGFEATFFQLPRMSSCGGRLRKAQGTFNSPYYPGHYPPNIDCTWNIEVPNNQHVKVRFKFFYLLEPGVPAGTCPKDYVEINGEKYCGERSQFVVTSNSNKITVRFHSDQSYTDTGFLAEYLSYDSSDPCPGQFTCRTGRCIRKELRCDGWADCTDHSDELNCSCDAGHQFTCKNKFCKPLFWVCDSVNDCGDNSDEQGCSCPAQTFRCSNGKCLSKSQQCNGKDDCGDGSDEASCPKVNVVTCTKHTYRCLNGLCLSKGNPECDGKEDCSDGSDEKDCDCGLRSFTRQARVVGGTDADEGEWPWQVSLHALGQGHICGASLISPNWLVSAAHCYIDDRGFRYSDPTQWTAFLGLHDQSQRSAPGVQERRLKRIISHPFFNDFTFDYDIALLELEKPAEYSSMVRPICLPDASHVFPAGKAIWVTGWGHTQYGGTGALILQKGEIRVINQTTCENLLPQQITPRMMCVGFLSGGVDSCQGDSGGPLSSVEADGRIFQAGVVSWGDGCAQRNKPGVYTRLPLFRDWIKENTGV
Nature of the series: Internally quenched peptide probe cleavage assay, MT-SP1. The series is classed as biochemical. The conditions noted are these: internally quenched peptide probe 20 μM (20 pM in source), 20 nM protease, 37° C. As to the method:
as §1

Series [1] has as its system supernatant from human bone marrow aspirates. In words: In situ stability of peptide probes in supernatant from human bone marrow aspirates. To be noted: 20 μM peptide probe, 37° C.

Square brackets hold non-standard residues; d marks the D form. Ends that are not written are not given here. Peptide text beside a SMILES is read from it. * marks the point of attachment. Dnp = O=[N+]([O-])c1ccc(*)c([N+](=O)[O-])c1; Mca = COc1ccc2c(CC(=O)*)cc(=O)oc2c1

Sequence of MMP9 (P14780 94-707): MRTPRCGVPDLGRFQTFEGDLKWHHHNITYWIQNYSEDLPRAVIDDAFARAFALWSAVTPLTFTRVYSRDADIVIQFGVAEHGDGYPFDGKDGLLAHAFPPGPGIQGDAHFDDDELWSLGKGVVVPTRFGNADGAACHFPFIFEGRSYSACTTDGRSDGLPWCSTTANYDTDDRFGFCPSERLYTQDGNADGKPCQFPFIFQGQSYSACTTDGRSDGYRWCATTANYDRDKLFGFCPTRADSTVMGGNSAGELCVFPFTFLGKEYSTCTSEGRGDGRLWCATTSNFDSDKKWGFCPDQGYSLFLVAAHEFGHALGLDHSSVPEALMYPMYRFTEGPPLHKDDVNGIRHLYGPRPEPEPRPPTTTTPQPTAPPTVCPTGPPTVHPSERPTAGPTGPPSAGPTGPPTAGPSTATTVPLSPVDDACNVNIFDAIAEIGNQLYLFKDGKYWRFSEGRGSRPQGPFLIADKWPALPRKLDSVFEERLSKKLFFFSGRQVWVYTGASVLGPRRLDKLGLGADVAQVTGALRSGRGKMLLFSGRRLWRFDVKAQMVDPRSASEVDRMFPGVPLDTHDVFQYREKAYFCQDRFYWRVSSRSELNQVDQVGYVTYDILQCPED

With HQSRSPWG (Mca-HQSRSPWG-{Lys(DNP)-dR}), the “Probe Cleavage (pM/s) MMP2” value in the series with MMP2 was 61.6 pM/s. The “Probe Cleavage (pM/s) MMP9” value with MMP9 was determined as 86.5 pM/s. Moreover, the “Probe Cleavage (pM/s) MMP14” value in the series with MMP14 is recorded as 0.00 pM/s.

With “HQSRPWGL (also: MCA, Lys(DNP), D-Arg labels, places not given here)”, in the series with MT-SP1, the “Probe Cleavage (pM/s) MT-SP1” value is recorded as 32.0 pM/s. Further, the “Probe Cleavage (pM/s) MMP14” value in the series with MMP14 worked out at 548 pM/s.

Take “HQSRSAIALYA (also: MCA, Lys(DNP), D-Arg labels, places not given here) [X1 is Y and X2 is A]”: in the series with MT-SP1, the “Probe Cleavage (pM/s) MT-SP1” value is 1750 pM/s. In addition, the “Probe Cleavage (pM/s) MMP2” value with MMP2 is 468 pM/s. In the series with MMP9, the “Probe Cleavage (pM/s) MMP9” value turned out to be 255 pM/s. Moreover, in the series with MMP14, the “Probe Cleavage (pM/s) MMP14” value was found to be 300 pM/s.

As to “HQSRSGPWGLA (Mca-HQSRSGPWGLA-{Lys(DNP)-dR})”, the “Probe Cleavage (pM/s) MMP2” value with MMP2 was determined as 410 pM/s. Moreover, the “Probe Cleavage (pM/s) MMP14” value with MMP14 came to 345 pM/s.

For “HQSRAGPWGLL (Mca-HQSRAGPWGLL-{Lys(DNP)-dR})”, the “Probe Cleavage (pM/s) MMP2” value with MMP2 turned out to be 594 pM/s. The “Probe Cleavage (pM/s) MMP14” value with MMP14 was determined as 379 pM/s.

On to `COc1ccc2c(CC(=O)N[C@@H](CO)C(=O)N3CCC[C@H]3C(=O)N[C@@H](C)C(=O)NCC(=O)N[C@@H](CC(C)C)C(=O)N[C@@H](CO)C(=O)NCC(=O)N[C@@H](CCCNC(=N)N)C(=O)N[C@@H](CO)C(=O)NCC(=O)N[C@@H](CCCCNc3ccc([N+](=O)[O-])cc3[N+](=O)[O-])C(=O)N[C@H](CCCNC(=N)N)C(=O)O)cc(=O)oc2c1` [reference compound] (Mca-SPAGLSGRSGK(Dnp)[dR]-OH), for which the “cleavage rate in supernatant from human bone marrow aspirates” value in series [1] turned out to be 2191 pM/s.

Take “HQSRSGAWGLL (Mca-HQSRSGAWGLL-{Lys(DNP)-dR})”: the “Probe Cleavage (pM/s) MMP2” value with MMP2 was 65.4 pM/s. Further, the “Probe Cleavage (pM/s) MMP9” value in the series with MMP9 turned out to be 436 pM/s. Also, in the series with MMP14, the “Probe Cleavage (pM/s) MMP14” value was 36.4 pM/s.

Regarding HQSRSAIAL (Mca-HQSRSAIAL-{Lys(DNP)-dR}), the “Probe Cleavage (pM/s) MMP2” value with MMP2 is on record as 76.9 pM/s. Besides, in the series with MMP9, the “Probe Cleavage (pM/s) MMP9” value was 41.9 pM/s. For the same compound, the “Probe Cleavage (pM/s) MMP14” value in the series with MMP14 is recorded as 95.5 pM/s.

As to “AQSRSGPWGLL (Mca-AQSRSGPWGLL-{Lys(DNP)-dR})”, the “Probe Cleavage (pM/s) MMP2” value with MMP2 is 726 pM/s. Besides, the “Probe Cleavage (pM/s) MMP14” value with MMP14 worked out at 437 pM/s.

On to “HQSASGPWGLL (also: MCA, Lys(DNP), D-Arg labels, places not given here)”, for which the “Probe Cleavage (pM/s) MT-SP1” value with MT-SP1 came to 8.00 pM/s. In addition, the “Probe Cleavage (pM/s) MMP2” value with MMP2 came out at 696 pM/s. The “Probe Cleavage (pM/s) MMP14” value with MMP14 turned out to be 335 pM/s.

On to “HASRSGPWGLL (Mca-HASRSGPWGLL-{Lys(DNP)-dR})”, for which the “Probe Cleavage (pM/s) MMP2” value with MMP2 was 692 pM/s. Besides, the “Probe Cleavage (pM/s) MMP14” value with MMP14 is on record as 424 pM/s.

For “HQSRSGPWALL (Mca-HQSRSGPWALL-{Lys(DNP)-dR})”, in the series with MMP2, the “Probe Cleavage (pM/s) MMP2” value was 488 pM/s. The “Probe Cleavage (pM/s) MMP14” value with MMP14 is listed as 475 pM/s.

“HQSRSGPWGL (Mca-HQSRSGPWGL-{Lys(DNP)-dR}) [X1 absent]”: in the series with MMP2, the “Probe Cleavage (pM/s) MMP2” value is 94.8 pM/s. Moreover, in the series with MMP9, the “Probe Cleavage (pM/s) MMP9” value is 705 pM/s. For the same compound, in the series with MMP14, the “Probe Cleavage (pM/s) MMP14” value is 27.3 pM/s.

Take “HQSRSAPWGLL (Mca-HQSRSAPWGLL-{Lys(DNP)-dR})”: the “Probe Cleavage (pM/s) MMP14” value in the series with MMP14 is reported as 660 pM/s.

Consider “HQSRSGPWGAL (Mca-HQSRSGPWGAL-{Lys(DNP)-dR})”, for which the “Probe Cleavage (pM/s) MMP2” value with MMP2 worked out at 61.1 pM/s. For the same compound, the “Probe Cleavage (pM/s) MMP9” value in the series with MMP9 came to 5.9 pM/s. Moreover, the “Probe Cleavage (pM/s) MMP14” value with MMP14 is 0.00 pM/s.

Consider “AIALHQSRS (also: MCA, Lys(DNP), D-Arg labels, places not given here)”, for which the “Probe Cleavage (pM/s) MT-SP1” value with MT-SP1 came out at 11500 pM/s. Moreover, the “Probe Cleavage (pM/s) MMP2” value with MMP2 was 4220 pM/s. In addition, the “Probe Cleavage (pM/s) MMP9” value in the series with MMP9 worked out at 2550 pM/s. In addition, the “Probe Cleavage (pM/s) MMP14” value in the series with MMP14 was 1280 pM/s.

“HQSRSAIALY (also: MCA, Gly-Lys(DNP)-D-Arg labels, places not given here) [X1 is Y]”: the “Probe Cleavage (pM/s) MT-SP1” value with MT-SP1 was 1960 pM/s. Besides, in the series with MMP2, the “Probe Cleavage (pM/s) MMP2” value is 434 pM/s. The “Probe Cleavage (pM/s) MMP9” value in the series with MMP9 is 328 pM/s. In addition, the “Probe Cleavage (pM/s) MMP14” value with MMP14 worked out at 92.7 pM/s.

In the case of “HQARSGPWGLL (Mca-HQARSGPWGLL-{Lys(DNP)-dR})”, the “Probe Cleavage (pM/s) MMP2” value with MMP2 turned out to be 623 pM/s. Further, the “Probe Cleavage (pM/s) MMP14” value with MMP14 was 344 pM/s.

In the case of “PWGLHQSRS (also: MCA, Lys(DNP)-D-Arg labels, places not given here)”, the “Probe Cleavage (pM/s) MT-SP1” value in the series with MT-SP1 is 1280 pM/s. Also, the “Probe Cleavage (pM/s) MMP2” value with MMP2 is given as 2550 pM/s. In the series with MMP9, the “Probe Cleavage (pM/s) MMP9” value turned out to be 5150 pM/s. Also, in the series with MMP14, the “Probe Cleavage (pM/s) MMP14” value was 5880 pM/s. Besides, in series [1], the “cleavage rate in supernatant from human bone marrow aspirates” value stood at 302 pM/s.

The values are drawn from US12551571B2, “Protease-cleavable substrates and methods of use thereof” (CytomX Therapeutics, Inc., priority 2022, dated 2026).
